Reference: US20210155941A1 (KITE PHARMA EU B V, published 2021)

Target: HLA-A*02:01/HPV16 E7 11-19 (…) peptide-MHC complex on target cells (Human Papilloma virus serotype 16 …)
Test: cell-based or functional assay

B1: A*02:01/HPV16 E711-19 human TCR (fully human constant regions) expressed on transduced T cells (TCR, V domains shown)
V domain 1: GQNIDQPTEMTATEGAIVQINCTYQTSGFNGLFWYQQHAGEAPTFLSYNVLDGLEEKGRFSSFLSRSKGYSYLLLKELQMKDSASYLCASVDGNNRLAFGKGNQVVVIP
V domain 2: DAGVTQSPTHLIKTRGQQVTLRCSPKSGHDTVSWYQQALGQGPQFIFQYYEEEERQRGNFPDRFSGHQFPNYSSELNVNALLLGDSALYLCASSLGWRGGRYNEQFFGPGTRLTVLE
  EC50 of intracellular IFN-γ (ICCS, flow cytometry), CD4+ T cells td with the TCR vector lacking the miRαβ cassette, peptide-loaded T2 target cells: ~52.4 nM
  EC50 of intracellular IFN-γ (ICCS, flow cytometry), CD4+ T cells td with the pMP71-miRαβ A*02:01/HPV16 E711-19 fHC TCR vector, peptide-loaded T2 target cells: ~22.3 nM
  EC50 of intracellular IFN-γ (ICCS, flow cytometry), CD8+ T cells td with the TCR vector lacking the miRαβ cassette, peptide-loaded T2 target cells: ~6.4 nM
  EC50 of intracellular IFN-γ (ICCS, flow cytometry), CD8+ T cells td with the miRαβ TCR vector (SEQ ID NO: 15), peptide-loaded T2 target cells: ~3.4 nM
